# Assay results taken from patent US20220204611A1 (Amgen, published 2022).
# T1: recombinant soluble human TREM2 protein (human TREM2 ECD-FlagHis) (human, UniProt Q9NZC2 19-174)
# T1 sequence: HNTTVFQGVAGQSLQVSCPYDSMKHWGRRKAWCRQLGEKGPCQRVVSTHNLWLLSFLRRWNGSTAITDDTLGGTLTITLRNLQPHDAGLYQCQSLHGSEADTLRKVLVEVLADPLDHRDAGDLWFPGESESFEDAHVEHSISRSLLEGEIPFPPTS
# T2: recombinant soluble cynomolgus TREM2 protein (cynomolgus TREM2 extracellular domain coupled to a Flag/His tag) (cynomolgus, UniProt A0A2K5UY34 49-204)
# T2 construct: extracellular domain; also called Cyno TREM2
# T2 sequence: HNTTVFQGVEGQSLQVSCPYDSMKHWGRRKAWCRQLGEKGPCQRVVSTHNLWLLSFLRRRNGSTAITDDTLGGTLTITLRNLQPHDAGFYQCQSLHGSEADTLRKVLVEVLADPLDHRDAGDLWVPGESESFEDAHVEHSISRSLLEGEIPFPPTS
# T3: human TREM2 on cells (human, UniProt Q9NZC2 19-230)
# T3 sequence: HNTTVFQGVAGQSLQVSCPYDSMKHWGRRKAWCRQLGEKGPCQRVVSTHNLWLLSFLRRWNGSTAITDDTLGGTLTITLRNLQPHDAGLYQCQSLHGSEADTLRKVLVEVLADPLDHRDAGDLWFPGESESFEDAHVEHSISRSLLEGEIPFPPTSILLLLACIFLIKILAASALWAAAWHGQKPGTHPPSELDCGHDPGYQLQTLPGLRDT
# What was measured:
# [1] = target: T1, recombinant soluble human TREM2 protein …; experiment: Octet BLI binning; competitor: load Ab 32E3
# Summary of the method: (§1)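 Load antibody captured on anti-human Fc sensors at 5 μg/mL for 2 min, then blocked with 100 μg/mL irrelevant human IgG2 for 5 min. Sandwich antibodies were added at 5 μg/mL for 5 min in 10 mM Tris pH 7.6, 0.1% Triton X-100, 150 mM NaCl, 1 mM CaCl₂, 1 mg/mL BSA, 25° C.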
# [2] = target: T1, recombinant soluble human TREM2 protein …; experiment: Octet BLI binning; competitor: load Ab 25F12
# Summary of the method: as §1
# [3] = target: T1, recombinant soluble human TREM2 protein …; experiment: Octet BLI, antibody on anti-human Fc sensor, 25 C
# Experimental: (§2) To quantitate the binding affinity of agonist antibodies for human TREM2, association and dissociation rate constants as well as the equilibrium dissociation constant were determined using anti-human Fc (Kinetic) sensors on an Octet® HTX instrument (Pall ForteBio). Agonist anti-TREM2 antibodies were made up in DMEM null media, 250 μL at 10 μg/mL. The, 250 uL of assay buffer (10 mM Tris (pH 7.6), 0.1% Triton X-100, 150 mM NaCl, 1mM CaCl₂, and 1 mg/mL BSA) was added to the antibody solutions to a final volume of 500 μL and final antibody concentration of 5 μg/mL. The anti-human Fc sensor was pre-incubated in 200 μL of the assay buffer for a minimum of 10 minutes. The sensor was then regenerated for 5 seconds in 10 mM glycine pH 1.5. Test agonist anti-TREM2 antibodies were loaded onto the sensor for 2 minutes, and baseline measurements were taken for 2 minutes. […] The recombinant TREM2 proteins were allowed to associate with the antibody-loaded sensor for 10 minutes, and then dissociation was measured for 10 minutes. The assay was conducted at 25° C. Experimental kinetic results were globally fit to a 1:1 binding model in order to determine the association and dissociation rate constants as well as the equilibrium dissociation constant.
# [4] = target: T2, recombinant soluble cynomolgus TREM2 …; experiment: Octet BLI, antibody on anti-human Fc sensor, 25 C
# Experimental: as §2
# [5] = target: T1, recombinant soluble human TREM2 protein …; experiment: Octet BLI binning; competitor: load Ab 10E3
# Summary of the method: as §1
# [6] = target: T1, recombinant soluble human TREM2 protein …; experiment: Octet BLI binning; competitor: load Ab 13E7
# Experimental: (§3) Each of sixteen different anti-TREM2 antibodies produced from hybridomas were quantitated and loaded onto one of the anti-human Fc sensors at 5 μg/mL for 2 minutes (“Load Antibody”). The sensor was then blocked with 100 μg/mL of an irrelevant human IgG2 antibody for 5 minutes. […] Next, each of the sixteen different anti-TREM2 antibodies (“Sandwich Antibody”) was added to the sensor at 5 μg/mL and allowed to bind for 5 minutes. All assay buffers contained 10 mM Tris (pH 7.6), 0.1% Triton X-100, 150 mM NaCl, 1 mM CaCl₂, and 1 mg/mL BSA. The assay was conducted at 25° C. Experimental kinetic results were fit to a 1:1 binding model.
# (§4) However, if addition of the sandwich antibody produces a binding event, then the sandwich antibody binds to a different epitope on human TREM2 than the load antibody and the two antibodies are categorized into different epitope bins.
# [7] = target: T1, recombinant soluble human TREM2 protein …; experiment: Octet BLI binning; competitor: load Ab 24A10
# Experimental: as §3, §4
# [8] = target: T1, recombinant soluble human TREM2 protein …; experiment: Octet BLI binning; competitor: load Ab 6E7
# Experimental: as §3, §4
# human TREM2 on cells [9] = target: T3, human TREM2 on cells; experiment: cell-based or functional assay
# [10] = target: T1, recombinant soluble human TREM2 protein …; experiment: Octet BLI binning; competitor: load Ab 5E3
# Experimental: as §3, §4
# [11] = target: T1, recombinant soluble human TREM2 protein …; experiment: Octet BLI binning; competitor: load Ab 24F4
# Experimental: as §3, §4
# [12] = target: T1, recombinant soluble human TREM2 protein …; experiment: Octet BLI binning; competitor: load Ab 26C10
# Experimental: as §3, §4
# [13] = target: T1, recombinant soluble human TREM2 protein …; experiment: Octet BLI binning; competitor: load Ab 24G6
# Summary of the method: as §1
# [14] = target: T1, recombinant soluble human TREM2 protein …; experiment: Octet BLI binning; competitor: load Ab 16B8
# Experimental: as §3, §4
# human TREM2 on cells [15] = target: T3, human TREM2 on cells; experiment: cell-based or functional assay; remark: listed apart in the source
# [16] = target: T1, recombinant soluble human TREM2 protein …; experiment: Octet BLI binning; competitor: load Ab 33B12
# Experimental: as §3, §4
Binder,sandwich binding signal [1],sandwich binding signal [2],Kd [3] [nM],Kd [4] [nM],sandwich binding signal [5],sandwich binding signal [6],sandwich binding signal [7],sandwich binding signal [8],Emax (% maximum activation compared to RnD antibody) (human TREM2 on cells [9]) [%],"pSyk EC50, differentiated THP-1 cells (human TREM2 on cells [9]) [nM]",sandwich binding signal [10],sandwich binding signal [11],sandwich binding signal [12],sandwich binding signal [13],sandwich binding signal [14],pSyk EC50 (human TREM2 on cells [15]) [nM],sandwich binding signal [16]
"10E3 (antibody, human IgG2, V domains shown, human IgG2 from hybridoma) VH: EVQLVQSGAEVKKPGESLMISCKGSGYSFTNYWIGWVRQMPGKGLEWMGIIYPGDSDTRYSPSFQGQVTISADKSISTAYLQWSSLKASDTAMYFCARRRQGIWGDALDIWGQGTLVTVSS VL: EIVMTQSPATLSVSPGERATLSCRASQSVSSNLAWFQQKPGQAPRLLIYGASTRATGIPARFSVSGSGTEFTLTISSLQSEDFAFYYCLQDNNWPPTFGPGTKVDIK",0.007,0.273,10.3,11.3,-0.024,-0.019,0.38,-0.012,456,1,0.415,-0.002,0.348,0.317,0.33,0.4,0.303
"13E7 (antibody, human IgG2, V domains shown, human IgG2 from hybridoma) VH: EVQLVQSGAEVKKPGESLMISCKGSGYSFTSYWIGWVRQMPGKGLEWMGIIYPGDSDTRYSPSFQGQVTISADKSISTAYLQWSSLKASDTAMYFCARRRQGIWGDALDFWGQGTLVTVSS VL: EIVMTQSPATLSVSPGERATLSCRASQSVSSNLAWFQQKPGQAPRLLIYGASTRATGIPARFSVSGSGTEFTLTISSLQSEDFAVYYCLQDNNWPPTFGPGTKVDIK",0.01,0.278,11,8.71,-0.019,-0.017,0.383,-0.01,460,0.462,0.428,-0.002,0.369,0.338,0.329,0.4,0.303

# Further binders by falling Kd [3], results first:
sandwich binding signal [1],sandwich binding signal [2],Kd [3] [nM],Kd [4] [nM],sandwich binding signal [5],sandwich binding signal [6],sandwich binding signal [7],sandwich binding signal [8],Emax (% maximum activation compared to RnD antibody) (human TREM2 on cells [9]) [%],"pSyk EC50, differentiated THP-1 cells (human TREM2 on cells [9]) [nM]",sandwich binding signal [10],sandwich binding signal [11],sandwich binding signal [12],sandwich binding signal [13],sandwich binding signal [14],pSyk EC50 (human TREM2 on cells [15]) [nM],sandwich binding signal [16],Binder
0.079,0.371,2.6,2.5,0.051,0.051,0.499,0.009,273,0.899,0.565,0.054,0.472,0.412,0.429,0.29,0.434,"6E7 (antibody, human IgG2, V domains shown, human IgG2 from hybridoma) VH: EVQLVQSGAEVKKPGESLKISCKGSGYSFTSYWIAWVRQMPGKGLEWMGIIYPGDSDTRYSPSFQGQVTISADKSISTAYLQWSSLKASDTAMYFCARQRTFYYDSSDYFDYWGQGTLVTVSS VL: DIQMTQSPSSVSASVGDRVTITCRASQGISSWLAWYQQKPGKAPKLLIYAASSLQNGVPSRFSGSGSGTDFTLTISSLQPEDFATYFCQQADSFPRTFGQGTKLEIK"
0.338,0.38,2.1,1.6,0.222,0.259,0.441,0.514,195,0.594,-0.165,0.434,-0.073,0.328,-0.047,0.24,-0.055,"5E3 (antibody, human IgG2, V domains shown, human IgG2 from hybridoma) VH: QVQLVQSGAEVKKPGASVKVSCKASGYTFTGYYIHWVRQAPGLGLEWMGWINPYSGGTTSAQKFQGRVTMTRDTSISSAYMELSRLRSDDTAVYYCARDGGYLALYGTDVWGQGTTVTVSS VL: DIQMTQSPSSLSASVGDRVTITCRASQGISNYLAWFQQKPGKAPKSLIYAASSLQSGVPSKFSGSGSGTDFTLTISSLQPEDFATYYCQQYSTYPFTFGPGTKVDIK"
